In publication PMC4103192 (Biochemical and biophysical research communications, 2010):

Assays:
[1] = target: human hepatic cytochrome P450 CYP3A4 in POPC Nanodiscs (human) (UniProt P08684); experiment: SEC
[2] = target: human hepatic cytochrome P450 CYP3A4 in POPC Nanodiscs (human) (UniProt P08684); experiment: steady-state enzyme activity titration
[3] = target: the molecule itself; experiment: SEC

stoichiometry N (CPR per CYP3A4) [1]: 1
Kd [2]: 10 to 50 nM
B1: full-length rat NADPH dependent cytochrome P450 reductase (enzyme, UniProt P00388 1-678, looked up)
chain: MGDSHEDTSATMPEAVAEEVSLFSTTDMVLFSLIVGVLTYWFIFRKKKEEIPEFSKIQTTAPPVKESSFVEKMKKTGRNIIVFYGSQTGTAEEFANRLSKDAHRYGMRGMSADPEEYDLADLSSLPEIDKSLVVFCMATYGEGDPTDNAQDFYDWLQETDVDLTGVKFAVFGLGNKTYEHFNAMGKYVDQRLEQLGAQRIFELGLGDDDGNLEEDFITWREQFWPAVCEFFGVEATGEESSIRQYELVVHEDMDVAKVYTGEMGRLKSYENQKPPFDAKNPFLAAVTANRKLNQGTERHLMHLELDISDSKIRYESGDHVAVYPANDSALVNQIGEILGADLDVIMSLNNLDEESNKKHPFPCPTTYRTALTYYLDITNPPRTNVLYELAQYASEPSEQEHLHKMASSSGEGKELYLSWVVEARRHILAILQDYPSLRPPIDHLCELLPRLQARYYSIASSSKVHPNSVHICAVAVEYEAKSGRVNKGVATSWLRAKEPAGENGGRALVPMFVRKSQFRLPFKSTTPVIMVGPGTGIAPFMGFIQERAWLREQGKEVGETLLYYGCRRSDEDYLYREELARFHKDGALTQLNVAFSREQAHKVYVQHLLKRDREHLWKLIHEGGAHIYVCGDARNMAKDVQNTFYDIVAEFGPMEHTQAVDYVKKLMTKGRYSLDVWS
binding result [3]: binds
